The target in assay [1] is T1, human podoplanin on cancer cells (glioblastoma LN319, lung cancer PC-10) (human, UniProt Q86YL7 23-162, sialylated O-glycan on Thr85 (as the filing concludes for podoplanin on cancer cells)).
T1 construct: Endogenous podoplanin on cancer cell lines LN319 and PC-10; also called hPDPN; cancer-type podoplanin
T1 chain: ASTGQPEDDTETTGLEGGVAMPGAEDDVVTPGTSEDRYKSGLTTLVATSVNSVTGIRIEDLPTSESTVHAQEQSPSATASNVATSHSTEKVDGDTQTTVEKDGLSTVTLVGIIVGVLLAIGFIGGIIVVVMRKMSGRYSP
Nature of the assay: flow cytometry, ExpiCHO culture supernatant on LN319 cells. The method, then:
Plasmids of the H chain and the L chain of chPMab117-mG2a were introduced into ExpiCHO cell lines (product of Thermo Fisher) by lipofection and a recombinant antibody of chPMab117-mG2a was expressed in the culture supernatant. The culture supernatant was collected two days after gene introduction. It was reacted with LN 319 cells at 4° C. for 30 minutes and was then reacted further with an anti-mouse IgG-FITC antibody (product of Thermo Fisher) at 4° C. for 30 minutes. As a negative control, only a secondary antibody was used.
(In general: A flow cytometer gives signals particle by particle.)

In another assay the target is T2, human podoplanin E81A (human, UniProt Q86YL7 23-162).
T2 construct: Alanine point mutant tested by flow cytometry
T2 chain: T1 chain with E59A
Nature of the assay: flow cytometry, alanine scan 77-89.

For another assay, the target named is T3, human podoplanin D82A (human, UniProt Q86YL7 23-162).
T3 construct: Alanine point mutant tested by flow cytometry
T3 chain: T1 chain with D60A
Description: flow cytometry, alanine scan 77-89.

The target of the next assay is T4, human podoplanin I80A (human, UniProt Q86YL7 23-162).
T4 construct: Alanine point mutant tested by flow cytometry
T4 chain: T1 chain with I58A
Description: flow cytometry, alanine scan 77-89.

The next assay concerns the target T5, human podoplanin I78A (human, UniProt Q86YL7 23-162).
T5 construct: Alanine point mutant tested by flow cytometry
T5 chain: T1 chain with I56A
Description: flow cytometry, alanine scan 77-89.

For a further assay, the target named is T6, human podoplanin T85A (human, UniProt Q86YL7 23-162).
T6 chain: T1 chain with T63A
Nature of the assay: flow cytometry, alanine scan 77-89.

Substitutions are numbered along the chain they refer to.

B1: mouse chimeric PMab-117 (chPMab117-mG2a) (antibody, mouse IgG2a, kappa)
heavy: AVQLVESGGGLVQPKESLKISCAASGFTFSNAAMYWVRQAPGKGLEWVARIRSKPNNYATYYTDSVKGRFTISRDDSKSMVHLQMDNLKTEDTAMYYCTVGGNNYAAAYWGQGTLVTVSSAKTTAPSVYPLAPVCGDTTGSSVTLGCLVKGYFPEPVTLTWNSGSLSSGVHTFPAVLQSDLYTLSSSVTVTSSTWPSQSITCNVAHPASSTKVDKKIEPRGPTIKPCPPCKCPAPNLLGGPSVFIFPPKIKDVLMISLSPIVTCVVVDVSEDDPDVQISWFVNNVEVHTAQTQTHREDYNSTLRVVSALPIQHQDWMSGKEFKCKVNNKDLPAPIERTISKPKGSVRAPQVYVLPPPEEEMTKKQVTLTCMVTDFMPEDIYVEWTNNGKTELNYKNTEPVLDSDGSYFMYSKLRVEKKNWVERNSYSCSVVHEGLHNHHTTKSFSRTPGK
light: DVVLTQTPVAQPVTLGDQASISCRSSQSLVHSNGNTYLEWYLQKPGQSPQLLIYKVSNRFSGVPDRFIGSGSGSDFTLKISRVEPEDLGVYYCFQVTHDPFTFGSGTKLEIKRADAAPTVSIFPPSTEQLATGGASVVCLMNNFYPRDISVKWKIDGTERRDGVLDSVTDQDSKDSTYSMSSTLSLTKADYESHNLYTCEVVHKTSSSPVVKSFNRNEC
notes: tested as ExpiCHO culture supernatant; no limits stated
With B1, the binding result in assay [1] is reported as “binds”.

B2: human chimeric PMab-117 (chPMab-117) (antibody, human IgG1)
heavy: not shown
light: DVVLTQTPVAQPVTLGDQASISCRSSQSLVHSNGNTYLEWYLQKPGQSPQLLIYKVSNRFSGVPDRFIGSGSGSDFTLKISRVEPEDLGVYYCFQVTHDPFTFGSGTKLEIKRGSAAPSVFIFPPSDEQLKSGTASVVCLLNNFYPREAKVQWKVDNALQSGNSQESVTEQDSKDSTYSLSSTLTLSKADYEKHKVYACEVTHQGLSSPVTKSFNRGEC
For the molecule B2, the binding result with human podoplanin E81A, with human podoplanin D82A, in the assay with human podoplanin I80A, with human podoplanin I78A and in the assay with human podoplanin T85A was “no binding (tested: 10 µg/mL)” throughout.

Source of the values: US20210115151A1 (TOHOKU UNIVERSITY, published 2021).
